Results: patent publication US20170342107A1

Experiments:
[1] = biological target: mouse melanocortin-4 receptor (mouse) (UniProt P56450); assay: 125I-NDP-MSH competitive displacement, HEK293 cells stably expressing mMC4R; negative = more potent than control
[2] = biological target: mouse melanocortin-4 receptor (mouse) (UniProt P56450); assay: 125I-NDP-MSH competitive displacement, HEK293 cells stably expressing mMC4R
[3] = biological target: mouse melanocortin-4 receptor (mouse) (UniProt P56450); assay: cell-based or functional assay
[4] = biological target: mouse melanocortin-3 receptor (mouse) (UniProt P33033); assay: cell-based or functional assay
[5] = biological target: mouse melanocortin-3 receptor (mouse) (UniProt P33033); assay: 125I-NDP-MSH competitive displacement, HEK293 cells stably expressing mMC3R; negative = more potent than control
[6] = biological target: mouse melanocortin-3 receptor (mouse) (UniProt P33033); assay: 125I-NDP-MSH competitive displacement, HEK293 cells stably expressing mMC3R
[7] = biological target: mouse melanocortin-4 receptor (mouse) (UniProt P56450); assay: 125I-NDP-MSH competitive displacement, HEK293 cells stably expressing mMC4R; here negative = weaker binder than SKY4-48-1

mouse melanocortin-4 receptor (mouse), sequence (P56450 whole entry): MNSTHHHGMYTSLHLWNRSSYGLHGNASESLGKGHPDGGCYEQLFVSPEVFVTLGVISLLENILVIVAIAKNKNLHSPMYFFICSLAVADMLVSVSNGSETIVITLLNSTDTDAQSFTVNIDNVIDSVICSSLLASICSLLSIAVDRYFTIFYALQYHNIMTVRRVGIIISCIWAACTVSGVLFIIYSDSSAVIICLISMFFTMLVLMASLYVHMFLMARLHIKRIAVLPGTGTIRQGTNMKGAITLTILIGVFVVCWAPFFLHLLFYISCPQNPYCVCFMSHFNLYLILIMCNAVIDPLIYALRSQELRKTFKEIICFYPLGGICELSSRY
mouse melanocortin-3 receptor (mouse), sequence (P33033 whole entry): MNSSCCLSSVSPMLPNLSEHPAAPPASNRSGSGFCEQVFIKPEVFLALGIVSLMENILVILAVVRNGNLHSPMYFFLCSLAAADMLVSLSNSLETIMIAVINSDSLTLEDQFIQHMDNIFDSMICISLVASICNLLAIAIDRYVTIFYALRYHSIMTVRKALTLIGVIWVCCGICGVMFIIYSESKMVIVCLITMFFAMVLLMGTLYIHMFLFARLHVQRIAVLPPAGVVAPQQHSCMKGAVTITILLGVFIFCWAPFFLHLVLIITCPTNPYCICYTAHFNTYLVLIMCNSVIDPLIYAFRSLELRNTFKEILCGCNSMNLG

Substance | Fold Diff. (IC50 against SKY4-48-1) [1] | IC50 [2] | Agonist Activity EC50 [3] | Antagonist Activity K [3] | Agonist Activity EC50 [4] | Fold Diff. (IC50 against SKY4-48-1) [5] | IC50 [6] | Agonist Activity, % stimulation relative to maximum [3] | Agonist, % of NDP-MSH maximal response [3] | Antagonist Ki [3] | pA2 (antagonist) [3] | Antagonist Activity K [4] | pA2 (antagonist) [4] | Fold Diff. (IC50 against SKY4-48-1) [7] | Fold Diff. (IC50 against SKY4-48-1) [6] | fold increase in agonist potency against SKY5-146-7 [4]
SKY4-48-42, Ac-Arg-Arg-(pI)DPhe-DNal(2')-NH2 (peptide) | 2 fold | 220 nM | > 100000 nM | 400 nM | 57 nM | -115 fold | 440 nM |  |  |  |  |  |  |  |  | 
SKY5-122-1, Ac-DTic-(pI)Phe-DArg-DHis-NH2 (peptide) |  | 6700 nM |  |  | > 100000 nM |  | 800 nM | 42 % @ 100 µM | 42 % @ 100 µM | > 3100 nM | 5.5 pA2 | 63 nM | 7.2 pA2 | -55 fold | 64 fold | 
SKY4-48-23, Ac-Phe-Arg-(pI)DPhe-Tic-NH2 (peptide) | 1 fold | 135 nM |  |  |  | -20 fold | 2500 nM |  |  |  |  |  |  |  |  | 
SKY4-48-18, Ac-Arg-Arg-(pI)DPhe-Tic-NH2 (peptide) | -9 fold | 13 nM | > 100000 nM | 16 nM | 16 nM | -92 fold | 550 nM |  |  | 15 nM |  |  |  |  |  | 
SKY6-24-3, Ac-DNal(2')-Arg-(pI)DPhe-Tic-NH2 (peptide) | -3 fold | 43 nM |  |  |  | -120 fold | 420 nM |  | 32 % @ 100 µM |  |  |  |  |  |  | 
SKY6-24-2, Ac-His-Arg-(pI)DPhe-Tic-NH2 (peptide) | 1 fold | 83 nM | > 100000 nM | 100 nM | 40 nM | -52 fold | 975 nM |  |  |  | 7 pA2 |  |  |  |  | 12 fold
